{"source": "patent US20230277613A1", "about": "“Polysaccharide-Rich Bombax Costatum Flower Extract” (priority 2020, published 2023)", "molecules": {"B1": {"name": "EGF: Epidermal Growth Factor, reference in the scratch assay (protein, UniProt P01133 23-1207, looked up)", "Pro-epidermal growth factor": "PQHWSCPEGTLAGNGNSTCVGPAPFLIFSHGNSIFRIDTEGTNYEQLVVDAGVSVIMDFHYNEKRIYWVDLERQLLQRVFLNGSRQERVCNIEKNVSGMAINWINEEVIWSNQQEGIITVTDMKGNNSHILLSALKYPANVAVDPVERFIFWSSEVAGSLYRADLDGVGVKALLETSEKITAVSLDVLDKRLFWIQYNREGSNSLICSCDYDGGSVHISKHPTQHNLFAMSLFGDRIFYSTWKMKTIWIANKHTGKDMVRINLHSSFVPLGELKVVHPLAQPKAEDDTWEPEQKLCKLRKGNCSSTVCGQDLQSHLCMCAEGYALSRDRKYCEDVNECAFWNHGCTLGCKNTPGSYYCTCPVGFVLLPDGKRCHQLVSCPRNVSECSHDCVLTSEGPLCFCPEGSVLERDGKTCSGCSSPDNGGCSQLCVPLSPVSWECDCFPGYDLQLDEKSCAASGPQPFLLFANSQDIRHMHFDGTDYGTLLSQQMGMVYALDHDPVENKIYFAHTALKWIERANMDGSQRERLIEEGVDVPEGLAVDWIGRRFYWTDRGKSLIGRSDLNGKRSKIITKENISQPRGIAVHPMAKRLFWTDTGINPRIESSSLQGLGRLVIASSDLIWPSGITIDFLTDKLYWCDAKQSVIEMANLDGSKRRRLTQNDVGHPFAVAVFEDYVWFSDWAMPSVMRVNKRTGKDRVRLQGSMLKPSSLVVVHPLAKPGADPCLYQNGGCEHICKKRLGTAWCSCREGFMKASDGKTCLALDGHQLLAGGEVDLKNQVTPLDILSKTRVSEDNITESQHMLVAEIMVSDQDDCAPVGCSMYARCISEGEDATCQCLKGFAGDGKLCSDIDECEMGVPVCPPASSKCINTEGGYVCRCSEGYQGDGIHCLDIDECQLGEHSCGENASCTNTEGGYTCMCAGRLSEPGLICPDSTPPPHLREDDHHYSVRNSDSECPLSHDGYCLHDGVCMYIEALDKYACNCVVGYIGERCQYRDLKWWELRHAGHGQQQKVIVVAVCVVVLVMLLLLSLWGAHYYRTQKLLSKNPKNPYEESSRDVRSRRPADTEDGMSSCPQPWFVVIKEHQDLKNGGQPVAGEDGQAADGSMQPTSWRQEPQLCGMGTEQGCWIPVSSDKGSCPQVMERSFHMPSYGTQTLEGGVEKPHSLLSANPLWQQRALDPPHQMELTQ", "modifications": "Pro-epidermal growth factor"}}, "tested_on": "normal human keratinocyte monolayer (NHK)", "assay": "Scratch assay, migration of NHK", "format": "cell-based", "settings": "EGF 100 ng/ml; 5 hours", "method": "Scratch Assay: a lesion was performed on a mat of normal human keratinocyte monolayer (NHK) at confluence before treatment with BCP extract at 0.01% and 0.05% dry matter or with EGF (Epidermal Growth Factor) at 100 ng/ml. A photo was taken at the start of treatment and after 5 hours of incubation in order to measure the rate of progression of the HCNs within the lesion. The percentage of coverage was evaluated under the different conditions by image analysis. The significance of the results was assessed by Student's t test.", "note": "Marks after values point to notes of the source that are not given here."}
{"molecule": "B1", "values": [{"measurement": "Evolution compared to the control", "value": "+85% **"}]}
